Test results taken from article doi:10.1101/2024.05.05.592584 (bioRxiv, 2024).

B1: C1520 IgG (antibody, V domains shown)
VH: EVQLVESGGGLVQPGGSLRLACVASGFTFSIYEMNWVRQAPGKGLEWVSYITTSGHARYNADSVKGRFTISRDNSKNSFYLQMNSLRAEDTAIYYCARPQYHYYDTSTYHSYGFDIWGQGTMVTVSS
VL: QLVLTQSPSASASLGASVNLTCTLSSGHNSYAIAWHQQQPEKGPRYLMSLNSDGSHTKGDGIPDRFSGSSSGAERFLTISSLQSEDEADYYCQTWDTGIRVFGGGTRLTVL
notes: copies: 2 + 2
B2: C1533 IgG (antibody, V domains shown)
VH: QVQLVQSGAEVKKPGSSVKVSCKTSGVIFSRNAFSWVRQAPGQGLEWMGRIIPFLDVTNSAQEFQGRVTLNADKSTSTVYMELSSLRSEDTAIYYCARHNGDPYDFWSGYNTWAGGLDVWGQGTTVTVSS
VL: QSVLTQPPSASGTPGQRVTISCSGSGSNIGSNAVNWYQQLPGTAPKLLIYNQNQRPSGVPDRFSGSKSGTSASLAIGGLQSEDEADYYCATWDDNLSGLVFGGGTKLTVL
notes: copies: 2 + 2
B3: C1596 IgG (antibody, V domains shown)
VH: QVQLVQSGAEVKKPGSSVKVSCKASGGTFINYAVTWVRQAPGQGLEWMGGIIPILGIPNYAQKFQGRVTITADKSTSTAYMELSSLRSEDTAVYYCARVPQAGAAQGHYYYYYGMDVWGQGTTVTVSS
VL: not shown
notes: copies: 2 + 2
B4: C1596 Fab (Fab, V domains shown)
VH: B3 VH
VL: not shown
B5: C952 IgG (antibody, V domains shown)
VH: EVQLVQSGAEVKKPGESLTISCKDSGNSFTIYWIGWVRQMPGKGLEWMGMIYPGDSGTRYSPSFEGQVTISADESINTAYLQWRSLKASDTAMYYCVRGIAVDWYFDLWGRGTLVTVSS
VL: QSVLTQPPSVSGAPGQRVTISCTGSSSNIGAGFDVHWYQQLPGTAPKLLIYGNNNRPSGVPDRFSGSKSATSASLAITGLQAEDEADYYCQSSDSSLSGLYVFGTGTNVIVL
notes: copies: 2 + 2

Assays:
Assay in all cases: BLI
Conditions in all cases: both partners purified
[1] = target: SARS-CoV-2 Wuhan-Hu-1 NTD (SARS-CoV-2 Wuhan-Hu-1, UniProt P0DTC2)
SARS-CoV-2 HV.1 NTD = target: T1, SARS-CoV-2 HV.1 NTD (SARS-CoV-2 Omicron HV.1, strain)
T1 chain: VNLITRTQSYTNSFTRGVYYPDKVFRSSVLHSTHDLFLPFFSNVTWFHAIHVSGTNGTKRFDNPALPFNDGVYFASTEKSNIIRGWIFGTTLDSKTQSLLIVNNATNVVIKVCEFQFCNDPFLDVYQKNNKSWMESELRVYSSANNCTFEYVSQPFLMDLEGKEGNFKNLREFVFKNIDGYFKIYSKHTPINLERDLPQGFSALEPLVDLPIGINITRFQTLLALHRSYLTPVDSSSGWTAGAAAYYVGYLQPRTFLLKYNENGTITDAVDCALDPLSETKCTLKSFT

SARS-CoV-2 RBD protein = SARS-CoV-2 RBD protein (SARS-CoV-2 Wuhan-Hu-1, UniProt P0DTC2)
[2] = target: SARS-CoV-2 RBD-SD1 protein (SARS-CoV-2, Wuhan-Hu-1 lineage (GenBank …, UniProt A0A679G9E9))
[3] = target: SARS-CoV-2 Wuhan-Hu-1 NTD protein (SARS-CoV-2 Wuhan-Hu-1, UniProt P0DTC2)
[4] = target: SARS-CoV-2 Wuhan-Hu-1 RBD (SARS-CoV-2 Wuhan-Hu-1, UniProt P0DTC2)

Binder | Kd [1] | koff [1] | kon [1] | further results
B1 | 24.8 nM | 0.000393 s⁻¹ | 15900 M⁻¹ s⁻¹ | –
B2 | 17.1 nM | 0.000547 s⁻¹ | 32000 M⁻¹ s⁻¹ | –
B3 | 125 nM | – | – | Kd (SARS-CoV-2 HV.1 NTD): 553 nM
B4 | – | – | – | binding result (SARS-CoV-2 RBD protein): no binding; binding result [2]: no binding; Kd [3]: 160 nM
B5 | – | – | – | Kd [4]: 6.35 nM; koff [4]: 0.00176 s⁻¹; kon [4]: 278000 M⁻¹ s⁻¹
